Test results as given in the DeepSol protein solubility set.

Assay: soluble on expression in E. coli; label from the status in PepcDB or PDB records

Row | Sequence | soluble on expression in E. coli
1 | ELDWFARRGLKEPNLAELLDLVALGSVADVVPLDANNRILVHQGLARIRAGRARPGLRALLEVAGRPPVRITSTDLGFILGPRLNAAGRLDDMSLGIECLLCDDEALARDMAVQLDQLNQDRKAIEQGMQREALAQLKELSLEQLPFGLCLFDADWHQGVIGILASRLKERYHRPTIAFADAGDGSLKGSARSIPGFHIRDALDAVAARHPGLISKFGGHAMAAGLSLPQENFGAFSAAFDAEVRRQLAEEDLAGRLLSDGQLSIQEFHLELARALRQAGPWGQHFPEPMFHGVFQLVQQRIVGERHLKLVLKSECGSLQLDGIAFNIDREQWPNPTVRWAELAYKLDVNEFRGQESVQL | not soluble
2 | ELVMTQTPLSLPVSLGDQASISCRSSQSLVHSNGNTYLHWYLQKPGQSPKFLIYKVSNRFSGVPDRFSGSGSGTDFILKISRVEAEDLGVYFCFQSTHFFPTFGGGTKLEIKRTVAAPSVFIFPPSDEQLKSGTASVVCLLNNFYPREAKVQWKVDNALQSGNSQESVTEQDSKDSTYSLSSTLTLSKADYEKHKVYACEVTHQGLSSPVTKSFNRGEC | soluble
3 | ENVLTQSPAIMSPSPGEKVTMTCRARSSVSSSYLHWYQQKSGASPKLWIYSTSNLASGVPARFSGSGSGTSYSLTISSVEAEDTATYYCQQYSGNPWTFGGGTKLEIKRADAAPTVSIFPPSSEQLTSGGASVVCFLNNFYPKDINVKWKIDGSERQNGVLNSWTDQDSKDSTYSMSSTLTLTKDEYERHNSYTCEATHKTSTSPIVKSFNRNEC | soluble
4 | ESRLDRILESGVLRVATTGDYKPFSYRTEEGGYAGFDVDMAQRLAESLGAKLVVVPTSWPNLMRDFADDRFDIAMSGISINLERQRQAYFSIPYLRDGKTPITLCSEEARFQTLEQIDQPGVTAIVNPGGTNEKFARANLKKARILVHPDNVTIFQQIVDGKADLMMTDAIEARLQSRLHPELCAVHPQQPFDFAEKAYLLPRDEAFKRYVDQWLHIAEQSGLLRQ | not soluble
5 | EVKQFNTYANNLAKIKQKVILMGLLTEAKLEQYKGLSVDEVEAQTEFSFQDAIYSLSPYEKLNYVEAVARKSLHQAEAYLSNAFNRQNAIMYFRSYTGSKLILERPIKALEGVKATFDVDWCKSNYSCVLAAWKEQLTDRVLFSLPFKTTYSDDMAISIMSPVYFQGELVGEFSEQLYLSSLYNEGKAVDVQISNGNKQMVIYFSGYPWPSFAYTQSFVADNNNLIVYMYPFSKV | not soluble
6 | EVQLQQSGPELKKPGETVKISCKATNYAFTDYSMHWVKQAPGGDLKYVGWINTETDEPTFADDFKGRFAFSLDTSTSTAFLQINNLKNEDTATYFCVRDRHDYGEIFTYWGQGTTVTVSA | soluble
7 | FASVLQGVFEYPYGCAEQTASKGYAALWLDDATIRSLGIQGVTPAQRLERLEGALGRLASLQTTNGHFSMWGGNSDVNPVLTPYIAGFLLDAKDAGFAVSDAVLQKALNRLSEDLLSGAHLFYGNDQSEALMFAHQAWSGYVLARVNRAPLGTLRTLYDNERGKAVSGLSLVHLGVALSLQGDRKRGEAAIEAGFAKSEGGRPEVFGDYGSVIRDNALMIALVRAHGLAKPAYEARVMALGRDLQARRRSGWLWLSTQEQVALAQ | not soluble
8 | FEKHGTYYEIFVRSFYDSDGDGIGDLKGIIEKLDYLNDGDPETIADLGVNGIWLMPIFKSPSYHGYDVTDYYKINPDYGTLEDFHKLVEAAHQRGIKVIIDLPINHTSERHPWFLKASRDKNSEYRDYYVWAGPDTDTKETKLDGGRVWHYSPTGMYYGYFWSGMPDLNYNNPEVQEKVIGIAKYWLKQGVDGFRLDGAMHIFPPAQYDKNFTWWEKFRQEIEEVKPVYLVGEVWDISETVAPYFKYGFDSTFNFKLAEAVIATAKAGFPFGFNKKAKHIYGVYDREVGFGNYIDAPFLTNHDQNRILDQLGQDRNKARVAASIYLTLPGNPFIYYGEEIGMRGQGPHEVIREPFQWYNGSGEGETYWEPAMYNDGFTSVEQEEKNLDSLLNHYRRLIHFRNENPVFYTGKIEIINGGLNVVAFRRYNDKRDLYVYHNLVNRPVKIKVASGNWTLLFNSGDKEITPVEDNNKLMYTIPAYTTIVLEKE | soluble
9 | FFTPPHIVQLCVRLVDDFADGMTFHDPTVGSGGMLTEAAKYYREAQGGDPSKLTFTGQEINPDIAAIARMNLSLHTLNGEIERGDSLASPGFTDGDDLERFDRVLANFPFSADWAKDDLQDDQYGRFDWHTKLPRADRGDYAFIMHIAEQLKEPDCGDESGGKAAIVIPHGVLFRKHEQRYRQPMLENDLVEAIVGLPENLFQNNSIPSAILVLNTDKPADREGEVQFIHAADEAFYEELSNQNELTDDGLDHIVENFDDWTTE | not soluble
10 | FGIIRGLMMHVTLVEINVHDDKVEQFIDVFRQNHLGSIKEPGNLRFDVLQDPQVLTRFYIYEAYVDEQAVAFHKTTPHYKTCVEQLEPLMTGPRTKKVFMGL | not soluble
11 | FIKLPEFKLNYHNKSYRQYGRGFALQNTNFRPGSSGTLMLNNQKQIAGIYFGVLDFGEDVSLMSNIGVGQILRVPQKNNTRNR | not soluble
12 | FLPTSREEMDQLGWDSCDVIIVTGDAYVDHPSFGMAIIGRLLEAQGFRVGIIAQPEWQTKDAFMTLGKPNLFFGVTAGNMDSMINRYTADKKIRHDDAYTPNNKGGMRPDRCSLVYSQRCREAYKDVPIVLGGIEASLRRVAHYDYWSDKVRRSILLDAKADILLFGNAERALVEVAHRLANGESINKMVDIRGTAVNLAQVPEHFKIIDSTRIDQPNKPFVPSNPYEVETQCATKGDEKEEAQPITIRPSRHDAKTTAVRLPSFEKLVNDRILYAHASRVLHLETNPYSGRALVQRHGDRELWVNQAPIPLTTEEMDFVFGLYYARVPHPKYGDAKIPAYDMIKTSVNIMRGCF | not soluble
13 | FNDEGEMHLPGQYDMLKARLAKNPGAELLIFIHGWHHNAAPTDDNFVAFQRFHRQMAKTNPGLIGLYIGWRGDQYDPLWLDGSDDPESRVEALDFPTILTSKQVARRVGEHGVRKLLSSLDELHRQGTLGRYILVGHSLGGVVALHA | not soluble
14 | FPSTYLSHRQETIGQKATAIAQSLEGKDRQSIEQVLDLYSQTSDIKGTVKGEMTEDKLEVKDSLPLDTDRQTTSLFIEEREVKTQDGGTMILQFLASMDLQKEAEQ | not soluble
15 | FSAPIKAERTAFRRAVCANQYDAVIDAQGLVKSAALVTRLAHGIKHGMDWSTAREPLASLFYNRKHHIAKQQHAVERTRELFAKSLGYDKPQSQGDYAIAKHFLHCQQAVSDPYAVFLHATTRDDKHWPEANWRELIGLVGNTGLRIKLPWGAPHEEARAKRLAEGFDYVDVLPRMSLEEVARVLAGAKFVVSVDTGLSHLTAALDRPNITLYGPTDPGLIGGYGKNQ | not soluble
16 | FVAHSSGQEVKLDKAPIDRADKESLQRGAKGFVEYCLTCHGANFMRFNRHHDIGMSEDDIRADLIHTGQKTGDLMEAAMRKKEAEGWFGVVPPDLSVIARARGADWLYTYLRTFYQDTSTYSGWNNLIFDKVAMPHVLHHLQGWQVLEPGTGNLVQTKPGTMTKEEYDRFVADLVNYMVYLGEP | not soluble
17 | FVDPLCPECWSLEPVIKKLKIRYGRFFTLRIIASASLTALNKKRKKHLLAEAWEKIASRSGMSCDGNVWFEQDQPLSSPYMAALAFKAAELQGRKAGMQFLRNMQESLFVSKKNITDENVLLEIAENTSLDLEEFKKDLHSQSAVKALQCDMKIAAEMDVSVNPTLTFFNTQHEDEGLKVPGSYSYDVYEEILFEMLGDE | not soluble
18 | GAADMPFRWSFMADGKSLIAAQPDDARVIADTEALAGWYGGMTSLAPKQIKLFADGAIYSQLMQVRDPFLDGHKGEWMMDLDQFQRAFRVYWDAGYQLHVHVNGDAGLDRVLDTLETNLRRTPRDDHRTTIVHFAVSGADQVLRIRDLGAIVSANPYYVAALADNYGEVGLGPDRADNMVRLGDVEAAGISWSLHSDMPMAPCDPLFLMWCAVNRVTSSGRVAGPAQRVSAETALRGVTINAAYSLKLEHEIGSIEPGKRANLTILGDNPLTVDPEKIRDIAVIGTVMEGRDFP | not soluble
19 | GAHTVDKRFGMDFKEIELIGSGGFGQVFKAKHRIDGKTYVIKRVKYNNEKAEREVKALAKLDHVNIVHYNGCWDGFDYDPETSSKNSSRSKTKCLFIQMEFCDKGTLEQWIEKRRGEKLDKVLALELFEQITKGVDYIHSKKLINRDLKPSNIFLVDTKQVKIGDFGLVTSLKNDGKRTRSKGTLRYMSPEQISSQDYGKEVDLYALGLILAELLHVCDTAFETSKFFTDLRDGIISDIFDKKEKTLLQKLLSKKPEDRPNTSEILRTLTVWKKSPEKNERHTA | soluble
20 | GAKSEMAFAGKGEISPRAITMWDFSWLERRWPGAGYEDWDQVLDELSERGYNAIRIDAYPHLIAENPMKKWLLKEVWNQQDWGSPDMNEVQVQPNLNLFLSKCKERDIKVGLSSWYRLDVDEVCLKLDTPEKLADCWLTILRSIEEDGLLDTILYVDLCNEWPGDSWAPFFAKTYPNVGWGNWYKEESLRWMKTSLEKMRQVYPDMPFLYSFDHGDVKKYEEVDCSFLDLYEHHIWMAQQNGGEFYKLVGYGYNRFLPDDYKNVVKNAERVYRERPGYWQKLLTDKIELMASVARKNRRPLVTTECWGLVDYKDWPLLKWDWVKDLCELGTITAARTGMWVGVATSNFCGPQFAGMWRDVEWHKRLTSIIRSSPLDESLTKNNEVAAKLLKRL | soluble
21 | GAMALVDGFLELERSSGKLEWSAILQKMASDLGFSKILFGLLPKDSQDYENAFIVGNYPAAWREHYDRAGYARVDPTVSHCTQSVLPIFWEPSIYQTRKQHEFFEEASAAGLVYGLTMPLHGARGELGALSLSVEAENRAEANRFMESVLPTLWMLKDYALQSGAGLAFEHPVSK | soluble
22 | GAMVSGQIMHAVGEEGGHVKYVCKIENYDQSTQVTWYFGVRQLENSEKYEITYEDGVAILYVKDITKLDDGTYRCKVVNDYGEDSSYAELFVKGVRE | soluble
23 | GANNDMPVEQILEAELAVDPKIDTYIDAQKDPVTNICQAADKQLFTLVEWAKRIPHFTELPLEDQVILLRAGWNELLIAGFSHRSIMAKDGILLATGLHVHRSSAHQAGVGTIFDRVLTELVAKMRDMKMDKTELGCLRAVVLFNPDAKGLTAVQEVEQLREKVYASLEEYTKSRYPEEPGRFAKLLLRLPALRSIGLKCLEHLFFFKLIGDQPIDTFLMEMLENPSPAT | soluble
24 | GARIKTLSVSRPIIYGNTAKKMGSVKPPNAPAEHTHLWTIFVRGPQNEDISYFIKKVVFKLHDTYPNPVRSIEAPPFELTETGWGEFDINIKVYFVEEANEKVLNFYHRLRLHPYANPVPNSDNGNEQNTTDHNSKDAEVSSVYFDEIVFNEPNEEFFKILMSR | soluble
25 | GFSSEVLKKAYDDTEDIEDQLQQAEGRLFEISQHNMKQDVQPIDPIIKEALGEIQIAANRKEGLSGQPSGFPAIDKLTAGWQASDLIIIAARPAMGKTAFVLSMAKNMAIDYNIPVAIFNLEMSSVQLVKRLMSNVCEIPGEKLKTGRLESHEWVQLDTKLKDFENKPLYIDDTPSLSVFELRTKSRRLVREYGVKVIIIDYLQLMNASGMSFGNREQEVSTISRSLKVLAKELKIPIIALSQLNRSVETRQGDINSKRPQLSDLRESGAIEQDADMVCFIHRPEYYKITEDQQGNSLLGIGEFIIAKHRNGPVDDVRLRFRSEFAKFLPLEAESMVKRHSRIGGSPVEMGVGNGSFAPPLPPPEDNPLLSGPYSSGTSEADFLAEASGIDNPF | not soluble
